Data published in the NTF2 design screens of Basanta et al. (2020).

Assay: protease stability score; higher = more stable; yeast display proteolysis, trypsin and chymotrypsin;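 note: relative to predicted unfolded state with 0 unfolded-like and 1 meaning tenfold more protease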

Row | Sequence | protease stability score
1 | DREERDTREALRILHEISRTGDEELLDRQMDPDVKIDFENHEFHGREEASTLIHEIYQKWGLSNVEMDIKRVRTVGEKVDIDGRLHFNGVTRDIRLINLKVNGKWFIHSIIFR | 1.2
2 | DREHDELRKTWEIYSQALSTGDEDELNKLADPNTRLDIDGKELHGMEDVHRHLHHNLRRVDHIELRIHEIRYQGDFAHVDGEVIIVYDGVKKSRRVHLILTKINGRWILTSVEFR | 1.28
3 | DREHREREELLNETNKAIATGDEETLRRLFDPNVQIEQGEYHHHGWEWVKKLMEEMRIEVEHVHDRRVDMFENHVRVDTHVHLRFIIGDKIFHVNLRQEIVMHKVNGVWIFKSFKYH | 1.4
4 | DREKEFVKEFFTMLHNVLHTGDFKLFEKMLDPRYRVEIGDKEAHGREEVLRWFHEYMRIAGIDHIELHLHNFDYQGDKVRMDTIVILIQGDKTFHLDVRIVVKKIDGQWINQTERIH | 1.42
5 | DREKKEAEQLIRLINRYIQTGDEHSLSRLMDPHVLLQVGDKKDIGWEIIINKIKEMWEKFKGARFNLEMRDIHLQGDFAEIDVEFEILVNGQFDTLKTRFIIFKIDGRWVIRSLSLE | 2.33
6 | DRERLADELRRRLEKVMTTGDPTELDKLMDPNARILYGDQKFHGREHVKEFAKTLNDQYDHVTIRLVSYDIKNGEIHIVVDVVFRHNGQTRTKRINFVARVHGDKVKIESINIP | 1.48
7 | DRERRHEEQLYRDLIHAWFTGDEEWLRKYADPHVRVEIGDKLRHGMEWLAKMREDVHRHLGIDHIHIHDHYFFDGRVHMDFRINIGDKHHNLHLHIVNVDGKVRSFRFEIH | 1.09
8 | DRHDKELERFTSDWLTSWHTGDFHRILELLDPDVRYIYGDKEWHGRENVHRAIKELLERLGIDHLHLQRVEIQGEKFKIQTQVHVGDKTINLIIHILVVDGRVREVNMDEK | 1.33
9 | DRHEELNKEIAEELVHWHRTGDWEEIQRNMDPNVRMEINGVENVGRETMAEILHEWLSRIKGLRVEIKHVEIIGDKVHIHGRININGRERNTHIDLHVVNGQMHELIIKVE | 0.279
10 | DRHEETDRRAVKILLEVIRTGDFETFYRLMDPHARYEYGEKELHGRDKSLKLLEELLRRFGHDKVEVHLKTYSAIDGRMEIHSVVNYNGREHNLHIESDKVNGRWEIRDIHVL | 1.09
11 | DRHEKIALEMARIILELLYTGDEDTFKHLADPNVKLHLDINGRHFEHHGREEHEKWSRELERHMRITDIKIDDEKVQGDWVHIDSTIVMRIGDKSSIHKMHFIFQIVDGRIKNMEVVIK | 1.38
12 | DRHERKKVAKDFNEALETNDHEQLMEQMDPNARIKYGDKHYHGREDLRRFWKKLVDSVDHITVDKMQVRGEEVVVLAKAESNGRNETFRLVMEFHNGRIKFVRKDTP | 1.05
13 | DRIEEEFEFALRHLIHNWVTGDETRLQKLADPNVRTVFEGREHHGRESFTELVHEIRFHDFRLRDYKIQGNKIVVDGEFDVDINGVRRIIRVELEIIKINGRWYIHSISFL | 0.203
14 | DRIEELSEEALHILKEVVRTGDERLIEENMDPNTRLEIGDKEFHGRHYAERFARDLGIKHMTFHHYETIDGRVHIHGTLHFNGRTHHTQIVLLKVNGQWRIERIHID | 0.669
15 | DRLEELLRHVSSLFLHSVETGDFDILQKLADPHVRMEVDGKELHGREHMVQRILDEYHKFGFTQIDSRLEDVRVYGDKVEVDLEHHFDGKTYKYEIILRKVNGRWTLESVIVR | 1.22
16 | DRLEELVERIAEIFLESYLTGDWKHLFDYFDPHAKLNIDGQESVGRESIQLMLEIHFKRVDHIQHFHRDDHRIQGNKFVFIGTLEGHVNGRTTRSRVKVEVTAVDGRIEELHIHIE | 1.23
17 | DRLHEMAREFSEEWSRAVKTGDEQLYSKLVDPNARFSIGEFDFHGRDEVSRIMKHWRIEDVHLSSVSVQGEKVEIRGHLHGDFDGRRQDVEVIIIVLKVNGRWFLRDLEFR | 1.31
18 | DRQKEILRELMEMFLTIFETGDEERFWELADPHVRHVIDIGDKEIRRVGREEMLKVWEHLYREMRIHRITLKDVRLVNGVFHAHVKVDGEYNGQRRETEMDIELNVVNGRVKSLIIHIQ | 1.89
19 | DRREEHAVNVFEIMFVLLLTGDETLFDKLFDPHVLFIIGDKEYHGRERFSKEMLRWIEEWRIQEFKIKDVRVVGDKAEIDGRIRGRYGDKETEIELHLIVMKVDGRWLVHSIELV | 1.09
20 | DRREEMEEIADELRRELIKTGDEHSTHRLADPHAKLHIGDKEYHGMEFMIRFFKILGVDHLRLQDIRVIDGQVHIHITSRVGDKRVHVEIISDKYNGRWRLREVIITID | 0.711
21 | DRRQEELRRMAEIWIHNELTGNEDEFRKLADPNVRFHLHVNGRVLSSHGMETLVKLFRELLEEWRIKEIHIHDMHIQGDKVHLEGRRRGTIGDKEDIYEVEIHVVIVNGKMKEITVIIK | 1.51
22 | DSDEEATKDFLEILIKLEMTGNEEEMRKMLDPNVRLIIDGVNLHGREALNVYLERFKNIQVEEIRIRHIEFQGEKVKIDYEWTVRINGRHHHQRTTIILIKYDGRWIIHMIHWH | 2.55
23 | DSDHHRAYEYAEFFIEWHETGNEDVLTELLDPHVRLIVDGQHYHGRDLIVRFLVQWRIHRFHIHDVKSIGEYIRVDTHVDMEFDGKRIITQVELVIIKINGRWRYKHISIP | 1.22
24 | DSDQSKREMDKFLEMVSTGDPDEVNRLLDKDAHAHVGDQTYHGREEISHMWKELREKIDHLEVHDYKVNGNKLEVDMHATINGQNVVFTVVAVLRNGHFESVEVQYRSEEEEEKVKR | 0.776
25 | DSEEEDARRALQEFLEHLATGNWEVLTKMMDPNTRLDVDGRDIHGWDEVKHHLKEMRVTIDHLHIERYIVQGEKVDIRGRVHILKEFDGKVLRHDRHVRIIFEKVDGRWIIHKIEHR | 1.99

Row | Sequence | protease stability score
26 | DSEEKDQRKASELTMRLLKTGNEDLMSHFFDPDTKVTIGDKEYHGREVLSHLLWEEKERIKGMRFEIKDLHVRYIGDKIRVESHVVLEINGVTLDTELIFHAEKVDGRWLSRSFEVRIT | -0.023
27 | DSEEKWDREFVKDFVHNEKTGDEERLKELMDPHAILLIDINGREIRHHGREAMTEEVDRFLKHAGVDHMDIHDVKIQGDKVRVDIRIEIGDKRQKSHIIIEKINGQWRVTQIHIHVE | 0.989
28 | DSEHEEAKTFVKELDKSIETGDEEKLKELLDPHTLIIVGDKFRIGWEWMANKISQIRIHMETRIRDVEHQGDKMIVHTDVRIDINVDGKKIHEQRDIHLIIRKVNGQWILKEIEIR | 1.36
29 | DSHEETNKFFFELTTHALETGDFDFLKKLADPHVRLNIDGRDTIGMDFLLRLWRELGFKHQHLKDMKIYGNWTYLDMHLHFNGREHDIHLNFKIFNGQMESIDVHIR | 1.32
30 | DSHRELLERFARLMLHLWLTGDEDELHKYMDPHVRYHQGEFHIHGREEVTRWASELHKKLGINHEDQERVNIYDGKNHVDTRLDINGRHLRVELRIDVWNGRIREVQVHHR | 1.41
31 | DSHYHLFIYNMELLSTLLKTGDEHRNTEMFDPHVRIVVGEKEIHGREDVEKYLREIRIEEMRFHLRRLDVQGEKVTVEGELRIRFWIGDKEHEHNEDARIHLLKINGRWRLKEIESK | 2.43
32 | DSLEDIFKLAVDDLEFLYETGDEEMTSQMADPNVRVIFNGRDFWGWHYLLKIFSELIKKLGIDHIRLEIDHVHLQGDKVDIHGTLRNHIGDFIFVHHTTHFLVKIDGRWFIRSVKIR | 2.15
33 | DSLEEMTRKWFEKWVRDLKTGDEQSMTELADPHVRFLQGDKEYHGRELFTELESEKRKRFDHLELRLHSMEVQGDKLHIDSRMILKIGDFVLKLNVYLHVLKIDGRWLLEEIRIK | 0.704
34 | DSLEKHTEDSLRFFLHILRTGDEEELSDLLDPRTRYEFNGKEFHGREQVVEVLIRLAEHIRIEELHVTHVEVYGDKVNSETLLIVDVDGQKRILHTRVLATKVNGKWLFQRIRIV | 2.17
35 | DSLHEKVEIMAHLLVEIIRTGNEEDWRRYVDPNVRIRIGDKDLHGREEAFRVVREIRIIVHDIKIRSLDVQGDKVESDVEVDVEFRIGDKVNRIHTRFRLIWTKVDGRWINESMSIE | 2.61
36 | DSSENFMRHMMEEVWNALVTGDEKLFQRLADPDVRLHFNGVHTHGRENVLTFLRSLDEHLGVKHRSIHDFTIVGDYSHIDTTMEVGDKHWRIHLFLVIIDGRVHHIEIRIE | 2.23
37 | DSVEELAKRSVELLLRLLKTGDEEEISRLADPDTRLVIGEFEFHGMEKVEHSWRKMGFTIHEWRIHDVEVQGDKLIVHVHQNIEFNGVHEEFRSIIIARKINGRWRLKSLHWK | 1.67
38 | DTDAVRRALKFIDAMQDGDPDKARELMDPNARVNIGDKEYHGMTSFVKDLKRLRDEIRVQYNIRDYNAQGEKIHVTVDVVFEHNGRPVDERFNVTIDIQGDKIKQVTAHRTK | 1.5
39 | DTDKKHIQNVLRLLSTLEHTGDWEALKELADPNVRVVVNGQEIHGRDMFNKHFEELRINDSRMILRDFEVQGDKIHVEGEVEFDGIIDGREKRFVRHVRIINVKIDGRWVIREIQVR | 1.62
40 | DTDQTLFEDYAKMYMKDLLTGDFESIEKYADPRVQVHIGDKEIHGREIFVKYLWEHNEQVDHRQFHFKDVDHFDGKIHVHMEMHIDVNGKLINEKLHVIIWKFNGRWIMKSVHHR | 0.78
41 | DTDTHTVKEFIRALVESSRTGDEDLLRDFADPRMRIDIDGRIFHGRENALRWLSELRIEEVRIDHVTIVDGRLHVDVTYRGDINGQHTETRVILIILKVNGRWRMHYIEVR | 1.55
42 | DTEDHLSHRVLEYHQEVEKTGDWHELFNNIDPHARMSVGDKRYHGMESMSKWLSRIKNAKIDEEHIEIQGNKIILHGTINVDGVRIESIILSLKVDGRWLRKEVRFH | 0.19
43 | DTEDKLSEEALKDLLEKVKTGDPQVMEELADPEVKVDIGDKNLHGREEYTRWVEKLWKRVPNLKLEIDHVEFQGDYVLIEGRIIYNGRKHKIKIHSLKIDGRWLIETVRIR | 1.39
44 | DTEEEILKQYLELLRRQHATGDEDSIKHLVDPNVRNDVNGVDIHGRDRMREWIERHRHNLGIDHIEIRITDLHIIDGRIHLDVRVFYRVDGRTIHMEIYVVLVKVDGRWSVKSRHLH | 0.911
45 | DTEEKELQKSLKELVTAVQTGDFKLLKELFDPHVRIDIGDKNVIGREEFSRFQKEEMEKWGVSRFTFDMEIHRYEIQGNKAYVDALNREEINGQEIHFNVDLFIHKINGKWLITEIRNK | 0.494
46 | DTEEKLARDIVRIVSELIFTGNEQDLKRLHDPRVRLEVLFENHYLEFHGWEDYLEWLEEWRNHMRMKEIHVHTLQVYGNKARDEVHTVVHIGDKRIETRMHFIVVVINGRIKYISVHIE | 1.9
47 | DTEERLLHEMLRYLLEWFITGDEELFARLADPNTRTNVNGRHFHGREEMARLLEKWWRDFGVKHVHIEHTRVQGDYLHIDTRLHIGDKDLHVHFKLLVIDGRIRSLEIIIR | 0.689
48 | DTEKYLYDFALRLHIHAHETGNFDQLIKNLDPHYRIDINGQIFHGREWVEREYKRAGIDKFELQHFEVKHEHVQGDFLIMDGKLEGNFNGVRINTRVEIYHEKFDGQWKIREVHHR | 0.185
49 | DTEQKHVLHLLDEVLHNILTGDWDRIDELMDPNVRVIIGEWDHHGRSYFRELHHLLMLKLGVDHRHIKIQDKDAQGEYAVAHTHLELRIGDKRETYQTRLIVSVVNGKIEEIRIHIG | 0.877
50 | DTIERFVRHSFNLFVKQLETGDEHTLEKMADPHVRLEYGDKEYHGREEFKRQMHEIRFKRLELKRIEIQGEWAIMHGEDDGHFNGVDMKLESTEIAVKVNGRWYLKSFILK | 1.41
